For assay [1], the target named is T1, Purified CEA (Biodesign International) (UniProt P06731 35-685).
T1 construct: Bought purified antigen, immobilized on 96-well plates at 5 ug/ml; also called carcinoembryonic antigen; target protein CEA
T1 sequence: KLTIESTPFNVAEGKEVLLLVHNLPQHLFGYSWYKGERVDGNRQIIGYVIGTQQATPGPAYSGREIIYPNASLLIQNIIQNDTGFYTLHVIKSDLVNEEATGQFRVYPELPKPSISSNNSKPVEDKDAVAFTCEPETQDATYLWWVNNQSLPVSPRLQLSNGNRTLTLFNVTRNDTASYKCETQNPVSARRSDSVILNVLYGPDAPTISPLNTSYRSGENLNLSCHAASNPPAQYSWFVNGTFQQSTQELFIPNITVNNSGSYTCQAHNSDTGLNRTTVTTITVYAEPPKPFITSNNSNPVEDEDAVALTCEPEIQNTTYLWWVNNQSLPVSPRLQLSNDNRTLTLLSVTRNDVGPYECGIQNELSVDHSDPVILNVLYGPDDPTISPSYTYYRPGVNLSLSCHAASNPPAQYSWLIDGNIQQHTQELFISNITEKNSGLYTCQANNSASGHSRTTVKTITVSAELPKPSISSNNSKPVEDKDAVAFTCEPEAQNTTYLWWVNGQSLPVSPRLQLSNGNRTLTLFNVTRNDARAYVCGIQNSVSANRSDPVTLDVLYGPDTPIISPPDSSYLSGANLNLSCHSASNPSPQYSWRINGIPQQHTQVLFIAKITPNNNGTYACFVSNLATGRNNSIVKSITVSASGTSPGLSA
The assay can be described thus: plate assay: CEA immobilized at 5 ug/ml, serially diluted B-Per extract, bound CAB read by nitrocefin hydrolysis at 490 nm.

Assay [2] addresses T1, Purified CEA (Biodesign International). Kind of assay: plate assay: purified CEA immobilized at 5 ug/ml, 2-fold dilutions of purified CAB1.11i, bound BLA activity read with nitrocefin at 490 nm.

B1: CAB1.11 molecule (scFv)
chain: DIVLTQSPASLSVSLGQRATMSCRAGESVDIFGVGFLHWYQQKPGQPPKLLIYRASNLESGIPVRFSGTGSGTDFTLIIDPVEADDVATYYCQQTNEDPYTFGGGTKLEIKGGGGSGGGGSGGGGSGGGGSGGGGSGGGGSEVQLQQSGAELVEPGASVKLSCTASGFNIKDTYMHWVKQRPEQGLEWIGRIDPANGNSKYVPKFQGKATITADTSSNTAYLQLTSLTSEDTAVYYCAPFGYYVSDYAMAYWGQGTSVTVSSTPVSEKQLAEVVANTITPLMKAQSVPGMAVAVIYQGKPHYYTFGKADIAANKPVTPQTLFELGSISKTFTGVLGGDAIARGEISLDDAVTRYWPQLTGKQWQGIRMLDLATYTAGGLPLQVPDEVTDNASLLRFYQNWQPQWKPGTTRLYANASIGLFGALAVKPSGMPYEQAMTTRVLKPLKLDHTWINVPKAEEAHYAWGYRDGKAVRVSPGMLDAQAYGVKTNVQDMANWVMANMAPENVADASLKQGIALAQSRYWRIGSMYQGLGWEMLNWPVEANTVVETSFGNVALAPLPVAEVNPPAPPVKASWVHKTGSTGGFGSYVAFIPEKQIGIVMLANTSYPNPARVEAAYHILEALQ
notes: scFv-BLA fusion; also called HR14.8; clone HR14.8
B1: the binding result in assay [1] is reported as “binds”.

B2: CAB1.11i molecule (scFv)
chain: DIVLTQSPASLSVSLGQRATMSCRAGESVDIFGVGFLHWYQQKPGQPPKLLIYRASNLESGIPVRFSGTGSGTDFTLIIDPVEADDVATYYCQQTNEDPYTFGGGTKLEIKGGGGSGGGGSGGGGSGGGGSGGGGSGGGGSEVQLQQSGAELVEPGASVKLSCTASGFNIKDTYMHWVKQRPEQGLEWIGRIDPANGNSKYVPKFQGKATITADTSSNTAYLQLTSLTSEDTAVYYCAPFGYYVSDYAMAYWGQGTSVTVSSTPVSEKQLAEVVANTITPLMAAQSVPGMAVAVIYQGKPHYYTFGKADIAANKPVTPQTLFELGSISKTFTGVLGGDAIARGEISLDDAVTRYWPQLTGKQWQGIRMLDLATYTAGGLPLQVPDEVTDNASLLRFYQNWQPQWKPGTTRLYANASIGLFGALAVKPSGMPYEQAMTTRVLKPLKLDHTWINVPKAEEAHYAWGYRDGKAVRVSPGMLDAQAYGVKTNVQDMANWVMANMAPENVADASLKQGIALAQSRYWRIGSMYQGLGWEMLNWPVEANTVVETSFGNVALAPLPVAEVNPPAPPVKASWVHKTGSTGGFGAYVAFIPEKQIGIVMLANTSYPNPARVEAAYHILEALQ
notes: Single-chain fusion of a T84.66-derived anti-CEA scFv (vL-(GGGGS)6-vH) to deimmunized beta-lactamase (BLA); also called encoded by plasmid pHR19.2
Regarding B2, the binding result in assay [2] is “binds”.

The values are drawn from patent US8088609 (DANISCO US, dated 2012).
